Results published in patent publication US8629106B2, “Affinity peptides toward BMP-2” (Janssen Biotech, Inc., priority 2010, dated 2014).
No end group written: not given here.

Assays:
BMP-2 = biological target: T1, BMP-2 (Homo sapiens, UniProt P12643); assay: Mutant phage ELISA (serine scan); assay type: binding; details: FIG. 11A, FIG. 11B
T1 construct: purchased R&D Systems 355-BM/CF
T1 sequence (P12643 283-396): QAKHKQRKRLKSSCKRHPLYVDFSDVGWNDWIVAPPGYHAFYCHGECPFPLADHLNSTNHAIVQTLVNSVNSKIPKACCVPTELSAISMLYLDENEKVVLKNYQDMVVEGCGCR
Description: Mutants of SEQ ID NO: 3 and SEQ ID NO: 6 were constructed by performing a serine scan where residues of the wild type were substituted with serine. […] SEQ ID NO: 24 through SEQ ID NO: 28 are mutants of SEQ ID NO: 3. SEQ ID NO: 29 through SEQ ID NO: 32 are mutants of SEQ ID NO: 6.
The respective custom oligonucleotide was obtained from Integrated DNA Technologies. The oligonucletides were inserted into the pIX gene using standard protocols. First, the oligonucletides were phosphorylated using T4 polynucleotide kinase. Next, the phosphorylated oligonucletides were annealed to the ssDNA template. Using the Kunkel method, the annealed DNA was ligated using T4 DNA ligase and T7 DNA polymerase. The resultant DNA was isolated using isopropanol precipitation and a gel was run to confirm the reaction. Lastly, electro-competent E. coli cells were transformed with the purified DNA and were plated out onto 2xYT/Tet/Xgal agar plates and allowed to grow overnight to isolate single colonies. An aliquot of the transformed cells was allowed to grow overnight at 37° C. while shaking in 50 mL 2xYT/tet media. The phage were then PEG precipitated following the procedure in Example 1. A phage titration was performed to determine the concentration of phage for the ELISA assay as described in Example 2. ELISA assays were performed following the procedure in Example 3.

biotinylated BMP-2 = biological target: T2, biotinylated BMP-2 (Homo sapiens, UniProt P12643); assay: Amplified luminescent proximity homogenous assay (ALPHA); assay type: binding; details: chemically synthesized peptides, FIG. 6, normalized to molar concentration
T2 construct: purchased R&D Systems 355-BM/CF
T2 sequence (P12643 283-396): T1 sequence (P12643 283-396)
Description: Concentration dependent binding efficiency of BMP-2 to the affinity peptides was evaluated using an ALPHA assay.
Diluted stock of biotinylated BMP-2 (R&D Systems, Minneapolis, Minn., Item number 355-BM/CF) at 3.3 micrograms/ml was prepared in 2× assay buffer (PBS, 0.01% Tween-80, 0.05% BSA). Chemically synthesized peptides having SEQ ID NO: 1, SEQ ID NO: 2, SEQ ID NO: 3, and SEQ ID NO: 6 were prepared using standard, automated Fluorenylmethyloxycarbonyl (Fmoc) solid phase peptide synthesis procedures. Each peptide solution for the assay was prepared from a 100 microgram/mL stock solution. The stock solution was serially diluted in ½ log steps in assay buffer resulting in peptide concentrations of 100, 33.3, 11.1, 3.70, 1.23, 0.41, 0.14, 0.046, 0.015, 0.0051, 0.0017 and 0.00056 micrograms/mL. Subsequently, serially diluted peptides were added to the corresponding wells containing the 10 microliters of the 3.3 microgram/mL solution of biotinylated BMP-2. Final assay test concentration for biotinylated BMP-2 was 0.825 micrograms/mL. Final peptide concentrations were 25, 8.3, 2.8, 0.93, 0.31, 0.10, 0.03, 0.01, 0.003, 0.001, 0.0003 and 0.0001 micrograms/mL. Next, Nickel (Ni)-acceptor and streptavidin (SA)-donor beads (Perkin Elmer, Waltham, Mass., Item number 6760619M) were diluted 1:100 in assay buffer prior to adding 20 microliters to each test well. Controls included BMP-2 alone in three different concentrations as well as SA beads with no peptide. The plate was made light-safe with an aluminum seal and shaken for 45 minutes on a table-top shaker at room temperature. The emission of the plate was read using a dual wavelength fluorometer (Perkin Elmer (Waltham, Mass.) Envision 2101 Multilabel Reader).
The ALPHA data in FIG. 6 was normalized to molar concentration based on the molecular weights of the peptide sequences.

[1] = tested on: MCHT-1/26 cells (mouse osteoblast cell line); assay: Alkaline phosphatase bioactivity assay in the presence of BMP-2; assay type: cell-based; details: peptide at 16, 160 and 800 nM, BMP-2 0-1000 ng/ml, 3 days, FIG. 7
Description: In this experiment, we determined if the affinity peptides would interfere with the cell surface receptor binding to BMP-2 using mouse osteoblasts. The alkaline phosphatase (ALP) production was monitored the presence of BMP-2 with and without affinity peptides.
Passage two MCHT-1/26 cells (mouse osteoblast cell line) were plated out in a 96 well plate the night before at 4500 cells/well. Cells were stimulated with serial dilution of BMP-2 in a range 0-1000 ng/ml in the presence or absence of 3 dilutions of peptide SEQ ID NO: 6 at 16, 160 and 800 nM. After incubation at 37° C. for 3 days, cells were lysed with lysis buffer (250 mM NaCl, 25 mM MgCl2 and 100 mM Tris, pH=8.0) overnight at 37° C. One third of the lysate was used for alkaline phosphatase assay with p-nitrophenylphosphate. The reaction was carried out at 37° C. for one to two hours. Next, the plate was read on an absorbance plate reader at a wavelength of 405 nm.

[2] = biological target: human serum albumin (HSA) (Homo sapiens, UniProt P02768); assay: Cross-reactivity phage ELISA assay toward human serum albumin; assay type: binding; details: relative luminescence, N=2
Description: (§1) In this experiment, we are confirming the binding of the phage identified in Example 1 to BMP-2.
(§2) 96-well black ELISA plates were coated with streptavidin (Rows A through D), hIgG (Rows E and F) and human serum albumin (Rows G and H), at a concentration of 5 micrograms/mL in PBS. Plates were incubated overnight at 4° C. Plates were washed 3 times with TBST using a plate washer. To the streptavidin-coated wells in rows C and D, 100 microliters of a 4 micrograms/mL solution of biotinylated-BMP-2 (R&D Systems, Minneapolis, Minn., Item number 355-BM/CF), was introduced and allowed to sit at room temperature for 30 minutes. To all other wells, 100 microliters of PBS was introduced. The plates were again washed 3 times with TBST using the plate washer. The wells were then blocked with 250 microliters of a 3% dehydrated milk suspension in TBST and allowed to sit at room temperature for a minimum of 1 hour. Using phage concentrations determined by the phage titrations, dilutions of the phage stock solutions were performed in a separate 96-well plate to result in phage concentrations of 10^10, 10^9, 10^8, 10^7, 10^6 and 10^5 phage/well. […] The luminescence was read using a luminometer set with a gain of 150.
(§3) The phage ELISA data in FIG. 3, FIG. 4 and FIG. 5 show relative luminescence and have an N value of 2. […]

hIgG = assay: Cross-reactivity phage ELISA assay toward hIgG; assay type: binding, human; details: relative luminescence, N=2
Description: as §1, §2, §3

Substance: SEQ ID NO: 33: a fragment of SEQ ID NO: 3, shown in FIG. 12 (AGYTSFALLKS)
- binding to BMP-2 in mutant phage ELISA (BMP-2): important for binding to BMP-2

Substance: SEQ ID NO: 34: a fragment of SEQ ID NO: 6, shown in FIG. 12 (AGRDSFNLLTS)
- binding to BMP-2 in mutant phage ELISA (BMP-2): important for binding to BMP-2

Substance: AGYTSFALLKSAESTLP [SEQ ID NO: 3]
- ranking according to concentration-dependent binding to BMP-2 (biotinylated BMP-2): SEQ ID NO: 6>SEQ ID NO: 3>SEQ ID NO: 2>SEQ ID NO: 1

Substance: SEQ ID NO: 1: affinity peptide toward BMP-2 identified by pIX phage display, sequence in FIG. 1 (AGLPLQSMSRLSYDSLS)
- ranking according to concentration-dependent binding to BMP-2 (biotinylated BMP-2): SEQ ID NO: 6>SEQ ID NO: 3>SEQ ID NO: 2>SEQ ID NO: 1

Substance: AGRDSFNLLTSSPLPST [SEQ ID NO: 6]
- ranking according to concentration-dependent binding to BMP-2 (biotinylated BMP-2): SEQ ID NO: 6>SEQ ID NO: 3>SEQ ID NO: 2>SEQ ID NO: 1
- effect on the ALP production of mouse osteoblasts [1]: minimal effect

Substance: SEQ ID NO: 2: affinity peptide toward BMP-2 identified by pIX phage display, sequence in FIG. 1 (AGPPGPYIAASAFLALK)
- ranking according to concentration-dependent binding to BMP-2 (biotinylated BMP-2): SEQ ID NO: 6>SEQ ID NO: 3>SEQ ID NO: 2>SEQ ID NO: 1

Substance: SEQ ID NO: 4: affinity peptide toward BMP-2 identified by pIX phage display, sequence in FIG. 1 (AGFRWWHTQPAHTLSYT)
- cross-reactivity with HSA [2]: binds to both hIgG and HSA
- cross-reactivity with hIgG (hIgG): binds to both hIgG and HSA
